Reference: publication PMC3281020

How the values were obtained:
[1] = system: Isw1a complex (TAP-purified via Ioc3-TAP, strain YTT1168) (yeast, strain YTT1168); experiment: magnetic tweezers; conditions: no ATP, end-tethered to glass and bead (1 um), TEM/EMSA: 20 mM (Methods: 10 mM) Tris-HCl pH 8.0, 30 mM KCl, 17.5 mM NaCl, 1 mM Hepes pH 7.6, 0.75% glycerol, 20 min at 30 C, 750 nM DNA in bp, CHD1 tweezers: …
[2] = system: Isw1a complex (TAP-purified via Ioc3-TAP, strain YTT1168) (yeast, strain YTT1168); experiment: TEM; conditions: no ATP, TEM/EMSA: 20 mM (Methods: 10 mM) Tris-HCl pH 8.0, 30 mM KCl, 17.5 mM NaCl, 1 mM Hepes pH 7.6, 0.75% glycerol, 20 min at 30 C, 750 nM DNA in bp, CHD1 tweezers: …
[3] = system: Isw1a complex (TAP-purified via Ioc3-TAP, strain YTT1168) (yeast, strain YTT1168); experiment: TEM, competition; conditions: TEM/EMSA: 20 mM (Methods: 10 mM) Tris-HCl pH 8.0, 30 mM KCl, 17.5 mM NaCl, 1 mM Hepes pH 7.6, 0.75% glycerol, 20 min at 30 C, 750 nM DNA in bp, CHD1 tweezers: …

Substance | Kd ([1]; F about 1 pN, tau_on 64 s, tau_off 69 s) [pM] | Kd ([1]; extrapolated to zero force, single nucleation complex) [pM] | binding signal (% unbound DNA) ([2]; 2 nM Isw1a) | binding signal (% unbound DNA) ([2]; 10 nM Isw1a) | binding signal (% unbound DNA) ([2]; 50 nM Isw1a) | binding signal (% unbound DNA) ([3]; 2 nM Isw1a, 1:1 mixture with scDNA) | binding signal (% unbound DNA) ([3]; 10 nM Isw1a, 1:1 mixture with scDNA) | binding signal (% unbound DNA) ([3]; 50 nM Isw1a, 1:1 mixture with scDNA) | binding signal (% unbound DNA) ([3]; 2 nM Isw1a, 1:1 mixture with linear DNA) | binding signal (% unbound DNA) ([3]; 10 nM Isw1a, 1:1 mixture with linear DNA) | binding signal (% unbound DNA) ([3]; 50 nM Isw1a, 1:1 mixture with linear DNA)
3.6 kbp tethered DNA (magnetic trap) | 1000 | 1 |  |  |  |  |  |  |  |  | 
linear pBR322 EcoRV-SspI fragment, 3983 bp |  |  | 82 | 53 | 20 | 90 | 73 | 25 |  |  | 
pBR322 negatively supercoiled plasmid |  |  | 57 | 37 | 10 |  |  |  | 59 | 33 | 6
